Patent publication US20260258394A1, “PLANT ENZYMES WITH IMPROVED ACTIVITY” (MAX-PLANCK-GESELLSCHAFT ZUR FÖRDERUNG DER WISSENSCHAFTEN …, priority 2023, published 2026)

Assays:
Experiment in all cases: mass photometry of purified protein
[1] = target: T1, GCC M5_L100N (M. extorquens) β-subunit L100N, Y143H, D407I, I450V, W502R mutations (Methylorubrum extorquens)
T1 construct: Engineered β-subunit, forms the β6 core; Cryo-EM structure PDB 8PN8; also called S100N; GCC M5 S100N
T1 chain: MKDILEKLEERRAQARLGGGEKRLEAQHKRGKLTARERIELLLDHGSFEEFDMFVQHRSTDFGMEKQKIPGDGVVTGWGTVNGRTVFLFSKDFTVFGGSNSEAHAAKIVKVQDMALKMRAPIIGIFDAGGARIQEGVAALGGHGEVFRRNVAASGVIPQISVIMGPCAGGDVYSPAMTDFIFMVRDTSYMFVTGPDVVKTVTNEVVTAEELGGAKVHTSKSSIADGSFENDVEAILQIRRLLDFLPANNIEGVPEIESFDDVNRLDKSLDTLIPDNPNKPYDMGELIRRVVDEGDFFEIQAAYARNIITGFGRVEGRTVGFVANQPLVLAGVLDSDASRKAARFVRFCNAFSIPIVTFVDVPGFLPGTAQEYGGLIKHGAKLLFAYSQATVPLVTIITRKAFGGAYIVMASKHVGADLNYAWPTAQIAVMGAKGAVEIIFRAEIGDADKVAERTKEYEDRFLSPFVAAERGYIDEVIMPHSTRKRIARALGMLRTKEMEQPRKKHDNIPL
Procedure: (§1) Mass photometry (MP) measurements were carried out on microscope coverslips (1.5 H, 24×50 mm, Carl Roth) with CultureWell™ Reusable Gaskets (CW-50R-1.0, 50-3 mm diameter×1 mm depth) that had been washed by three consecutive rinses of water and isopropanol, prior to drying under a stream of pressurized air. Gaskets were assembled on microscope coverslips and placed on the stage of a TwoMP mass photometer (MP, Refeyn Ltd, Oxford, UK) with immersion oil. Measurements were carried out in 1× phosphate-buffered saline (PBS, 10 mM Na₂HPO₄, 1.8 mM KH₂PO₄, 137 mM NaCl, 2.7 mM KCl (pH 7.4)). To this end, 18 μL 1×PBS was used to focus the MP before 2 μL sample (1 μM protein) was added, rapidly mixed, and measured. Shortly before measuring, samples were prepared by diluting purified protein to 1 μM monomer concentration in buffer (50 mM HEPES, pH 7.8, 150 mM KCl), as determined by absorption at 280 nm. Data was acquired for 60 s at 100 frames per second using AcquireMP (Refeyn Ltd, Oxford, UK). MP contrast was calibrated to molecular masses using 50 nM of in-house purified protein mixture containing citrate-synthase complexes of known molecular masses ranging from 86 to 430 kDa. MP datasets were processed and analyzed using DiscoverMP (Refeyn Ltd, Oxford, UK). Details of MP image analysis have been described previously (Sonn-Segev, et al., 2020, Nat Commun 11, 1772).

[2] = target: T2, GCC M5 (M. extorquens) β-subunit L100S, Y143H, D407I, I450V, W502R mutations (Methylorubrum extorquens)
T2 construct: Engineered β-subunit (carboxyltransferase), forms the β6 core; also called S100S; β6 core of GCC M5
T2 chain: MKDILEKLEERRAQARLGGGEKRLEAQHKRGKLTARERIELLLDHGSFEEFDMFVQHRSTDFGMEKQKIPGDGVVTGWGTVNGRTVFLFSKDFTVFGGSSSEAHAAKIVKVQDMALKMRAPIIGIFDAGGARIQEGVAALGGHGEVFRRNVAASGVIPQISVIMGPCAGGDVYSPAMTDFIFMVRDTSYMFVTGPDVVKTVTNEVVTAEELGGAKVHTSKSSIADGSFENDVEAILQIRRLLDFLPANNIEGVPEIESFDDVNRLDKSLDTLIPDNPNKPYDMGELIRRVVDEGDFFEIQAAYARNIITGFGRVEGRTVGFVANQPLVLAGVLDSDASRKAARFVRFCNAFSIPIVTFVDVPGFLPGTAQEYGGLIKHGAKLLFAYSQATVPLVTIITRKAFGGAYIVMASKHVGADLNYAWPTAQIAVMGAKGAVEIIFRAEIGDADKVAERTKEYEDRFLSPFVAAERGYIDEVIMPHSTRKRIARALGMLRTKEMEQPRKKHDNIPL
Procedure: as §1

[3] = target: T3, PCC WT (M. extorquens) β-subunit (Methylorubrum extorquens)
T3 construct: Wild-type β-subunit of propionyl-CoA carboxylase, forms the β6 core; also called PCC wildtype; PCC from M. extorquens
T3 chain: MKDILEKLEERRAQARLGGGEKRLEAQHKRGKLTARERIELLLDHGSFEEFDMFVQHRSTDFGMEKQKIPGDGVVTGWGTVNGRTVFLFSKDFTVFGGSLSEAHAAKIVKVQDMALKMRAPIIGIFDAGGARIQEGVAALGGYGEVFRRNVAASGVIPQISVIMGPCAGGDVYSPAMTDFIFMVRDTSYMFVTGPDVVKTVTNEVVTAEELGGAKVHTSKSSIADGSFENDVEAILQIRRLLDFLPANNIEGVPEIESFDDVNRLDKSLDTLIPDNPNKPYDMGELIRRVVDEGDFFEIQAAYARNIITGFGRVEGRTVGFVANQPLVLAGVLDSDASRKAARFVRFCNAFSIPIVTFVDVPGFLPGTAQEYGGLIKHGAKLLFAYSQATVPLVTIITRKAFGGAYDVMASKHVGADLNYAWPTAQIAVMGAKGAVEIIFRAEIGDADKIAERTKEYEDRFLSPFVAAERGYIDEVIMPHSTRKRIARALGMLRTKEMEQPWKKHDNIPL
Procedure: as §1

binding result [1]: binds | binding result [2]: binds | binding result [3]: binds
B1: PCC WT (M. extorquens) α-subunit (enzyme)
chain: MFDKILIANRGEIACRIIKTAQKMGIKTVAVYSDADRDAVHVAMADEAVHIGPAPAAQSYLLIEKIIDACKQTGAQAVHPGYGFLSERESFPKALAEAGIVFIGPNPGAIAAMGDKIESKKAAAAAEVSTVPGFLGVIESPEHAVTIADEIGYPVMIKASAGGGGKGMRIAESADEVAEGFARAKSEASSSFGDDRVFVEKFITDPRHIEIQVIGDKHGNVIYLGERECSIQRRNQKVIEEAPSPLLDEETRRKMGEQAVALAKAVNYDSAGTVEFVAGQDKSFYFLEMNTRLQVEHPVTEMITGLDLVELMIRVAAGEKLPLSQDQVKLDGWAVESRVYAEDPTRNFLPSIGRLTTYQPPEEGPLGGAIVRNDTGVEEGGEIAIHYDPMIAKLVTWAPTRLEAIEAQATALDAFAIEGIRHNIPFLATLMAHPRWRDGRLSTGFIKEEFPEGFIAPEPEGPVAHRLAAVAAAIDHKLNIRKRGISGQMRDPSLLTFQRERVVVLSGQRFNVTVDPDGDDLLVTFDDGTTAPVRSAWRPGAPVWSGTVGDQSVAIQVRPLLNGVFLQHAGAAAEARVFTRREAELADLMPVKENAGSGKQLLCPMPGLVKQIMVSEGQEVKNGEPLAIVEAMKMENVLRAERDGTISKIAAKEGDSLAVDAVILEFA
modifications: biotin covalently bound to a lysine (position not given)
notes: Co-expressed with the β-subunit and BirA in E. coli BL21-birA and purified by His-Trap; also called α-subunit of the PCC; GCC M5 α-subunit
